For experiment [1], the target named is IL-3 receptor alpha subunit (IL3Rα, CD123) (human) (UniProt P26951). Description: flow cytometry on ML-1 cells, isotype control-PE at 10 µg/ml [panel ML-1 (1900/cell].
Experiment [2] concerns the target transferrin receptor (human) (UniProt P02786). Description: cell-based or functional assay.
Experiment [3] addresses T1, IL-3 receptor alpha subunit (IL3Rα, CD123) (human, UniProt P26951 19-378).
T1 construct: whole, on cells; also called IL3Rα chain; alpha subunit of the IL-3 receptor
Description: flow cytometry on TF-1 cells (CD123-expressing), mAb at 0.5 µg/ml, detected with R-PE goat F(ab')2 anti-mouse IgG, MOPC-21 isotype control subtracted [panel A].

The source of these data is patent US20120189540A1 (STEMLINE THERAPEUTICS, published 2012).

T1 sequence (P26951 19-378): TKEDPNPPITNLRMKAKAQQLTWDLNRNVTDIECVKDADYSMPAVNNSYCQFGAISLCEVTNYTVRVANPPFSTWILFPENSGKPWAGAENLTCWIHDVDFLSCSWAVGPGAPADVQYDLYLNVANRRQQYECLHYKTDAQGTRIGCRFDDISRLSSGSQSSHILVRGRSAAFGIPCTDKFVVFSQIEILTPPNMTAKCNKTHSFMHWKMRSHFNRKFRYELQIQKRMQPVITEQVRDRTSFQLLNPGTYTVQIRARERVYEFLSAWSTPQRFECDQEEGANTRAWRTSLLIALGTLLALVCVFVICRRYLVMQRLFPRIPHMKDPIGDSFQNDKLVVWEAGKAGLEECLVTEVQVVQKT
Chain of transferrin receptor (human) (P02786 whole entry): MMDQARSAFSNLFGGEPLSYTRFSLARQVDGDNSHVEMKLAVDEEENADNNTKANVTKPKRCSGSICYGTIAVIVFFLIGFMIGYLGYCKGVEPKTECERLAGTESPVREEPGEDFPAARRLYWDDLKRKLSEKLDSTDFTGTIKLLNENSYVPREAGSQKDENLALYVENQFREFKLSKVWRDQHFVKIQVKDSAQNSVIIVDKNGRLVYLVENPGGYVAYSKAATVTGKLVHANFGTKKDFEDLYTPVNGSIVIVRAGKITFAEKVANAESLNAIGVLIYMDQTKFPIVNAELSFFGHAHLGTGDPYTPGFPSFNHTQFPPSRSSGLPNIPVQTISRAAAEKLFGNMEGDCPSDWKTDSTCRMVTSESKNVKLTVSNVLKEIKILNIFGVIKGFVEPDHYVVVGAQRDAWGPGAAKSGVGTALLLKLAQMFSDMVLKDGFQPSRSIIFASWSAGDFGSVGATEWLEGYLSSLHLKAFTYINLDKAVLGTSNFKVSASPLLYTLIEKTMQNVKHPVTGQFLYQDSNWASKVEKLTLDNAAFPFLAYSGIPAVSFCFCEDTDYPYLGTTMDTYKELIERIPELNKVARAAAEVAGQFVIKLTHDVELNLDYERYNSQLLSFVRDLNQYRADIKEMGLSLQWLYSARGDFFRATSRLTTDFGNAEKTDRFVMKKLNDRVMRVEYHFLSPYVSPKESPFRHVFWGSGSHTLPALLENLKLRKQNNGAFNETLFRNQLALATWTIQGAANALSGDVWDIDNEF
Chain of IL-3 receptor alpha subunit (IL3Rα, CD123) (human) (P26951 19-378): as the sequence (P26951 19-378) above

The molecule isotype control-PE (antibody) yielded a number printed beside the histogram (fluorescence on the FL-2:PE axis, not named on the sheet) in experiment [1] of 7.1.
In experiment [2], HB21(Fv)-PE40 (scFv) returned an IC50(ng/ml), cytotoxicity (WST-8 cell viability) on ML-1 of 5.2 ng/mL; an IC50(ng/ml), cytotoxicity (WST-8 cell viability) on Molm-14 of 60 ng/mL; an IC50(ng/ml), cytotoxicity (WST-8 cell viability) on TF-1 of 2.2 ng/mL.

B1: monoclonal antibody 32701 (antibody, V domains shown)
VH: QIQLVQSGPELKKPGETVKISCKTSGYVFTNYGMNWVKQAPGKGFKWMGWMNTNTGEPTSLEDFKGRFAFSLETSASTAYLQINNLKNDDTATYFCARSGGYDPMDYWGQGTSVTVSS
VL: DIVLTQSPASLAVSPGQRATISCRASESVDNYGNTFMHWYQQKPGQPPKLLIYRASNLESGIPARFSGSDSRTDFTLTINPVEADDVATYYCQQSKEDPPTFGAGTKLELK
With B1, the binding result in experiment [3] was “binds”.

B2: monoclonal antibody 32716 (antibody, V domains shown)
VH: QIQLVQSGPELKKPGETVKISCKASGYIFTNYGMNWVKQAPGKSFKWMGWINTYTGESTYSADFKGRFAFSLETSASTAYLHINDLKNEDTATYFCARSGGYDPMDYWGQGTSVTVSS
VL: DIVLTQSPASLAVSLGQRATISCRASESVDNYGNTFMHWYQQKPGQPPKLLIYRASNLESGIPARFSGSGSRTDFTLTINPVEADDVATYYCQQSNEDPPTFGAGTKLELK
For B2, the binding result in experiment [3] is “binds”.

B3: monoclonal antibody 26292 (antibody, V domains shown)
VH: QVQLQQPGAELVRPGASVKLSCKASGYTFTSYWMNWVKQRPDQGLEWIGRIDPYDSETHYNQKFKDKAILTVDKSSSTAYMQLSSLTSEDSAVYYCARGNWDDYWGQGTTLTVSS
VL: DVQITQSPSYLAASPGETITINCRASKSISKDLAWYQEKPGKTNKLLIYSGSTLQSGIPSRFSGSGSGTDFTLTISSLEPEDFAMYYCQQHNKYPYTFGGGTKLEIK
With B3, the binding result in experiment [3] was “binds”.
